From patent US12186353B2, “Method of reducing neuronal microtubule binding protein Tau (Tau) levels” (ADAERATA, LIMITED PARTNERSHIP, priority 2018, dated 2025)

How the values were obtained:
Format in all cases: cell-based
Tau [1] = assay: Western blot of Tau fusion protein levels in HEK293T cells co-expressing Numb isoforms; conditions: 48 hours after transfection
Excerpt: FIGS. 6A-I: Isoform Numb-72 interacts with Tau and regulates Tau level. FIG. 6A. Schematic of 4 Numb isoforms, differing with the presence or the absence of an insertion (arrowhead) in PTB domain arrowhead, and the presence or the absence of an insertion in the proline-rich region (PRR). FIG. 6B. Coimmunoprecipitation of Tau and 4 isoforms of Numb in HEK293 cells. Each Numb isoform was transfected in HEK293T cells together with a flag-tagged version of Tau and immunoprecipitation was perform 24 hours later with a flag antibody and blotted for Numb. […] FIG. 6C. Detection of Tau::GFP level in presence of 4 isoforms of Numb by western blot in HEK293. All the Numb isoforms were transfected with a Tau::GFP fusion protein in HEK293T cells and the levels of Tau::GFP was analysed by western blot 48 hours after transfection. FIG. 6D. Schematic representation of DNA construct of a human-medulloblastoma-derived cell line (DAOY) expressing human Tau fused with EGFP (Lasagna-Reeves et al., 2016). Additionally, this cell line expresses DsRed upstream of an internal ribosomal entry site (IRES), which is translated independently of the Tau-GFP protein. DsRed-IRES-Tau::EGFP expressing cells were used to assess the abundance of Tau by monitoring the Tau-GFP to DsRed fluorescence ratio. FIG. 6E. DsRed and Tau::EGF expression in Daoy cells, transfected with Myc only construct. FIGS. 6F-J. Fluorescence-activated cell sorting (FACs) analysis of the 4 Numb isoforms affected 3 days after transfection on ratio DsRed versus DsRed and GFP-positives cells compared to the control (Myc-Tag). FIG. 6K Quantification represents fold change for 5 experiments, +/− SEM, **p≤0.001; n.s. non-significant Anova 1-way test.
Numb72::Myc. HEK293T cells were transfected with Jet Prime using the following constructs Tau::Flag, Tau::GFP, Numb65, Numb66, Numb71 and Numb72.
Cells were harvested, and lysed in a NP-40 buffer (50 mm TRIS, pH 8.0, 150 mm NaCl, 1.0% NP-40 with Complete Protease Inhibitor Cocktail (Roche)). For immunoblotting, 40 μg of protein samples for in vivo blot and 10 ug for in vitro blot were loaded on a 10% acrylamide SDS-PAGE gels for separation by electrophoresis migration and then transferred onto PVDF membranes using transblot machine (Millipore). […] The primary antibody was detected with an HRP-conjugated goat anti-rabbit (1:10,000; Jackson Immunoresearch) in 0.5% dry milk in TBST. […]
To determine whether increasing the levels of Numb could affect the levels of Tau, the inventors co-expressed all isoforms of Numb together with a Tau::Venus fusion protein in HEK293T cells and analyzed the levels of Tau::Venus by western blot 48 hours after transfection.

Tau [2] = assay: Dot blot of monomeric and oligomeric Tau in the media of HEK293T cells expressing Tau; conditions: media collected 24 h after doxycycline, vs GFP control
Experimental: FIGS. 9A-B: Numb72 stimulates secretion of the monomeric form of Tau in the extracellular media in cell lines, but not oligomeric (toxic) Tau. FIG. 9A. Dot blot of monomeric Tau levels (5A6) and oligomer of Tau (T22) in the media of HEK293T stable inducible cells line expressing Tau transfected with either GFP (Control) or Numb72. Tau expression was activated by adding Doxycycline 6 h after transfection and the media collected 24 h later for Dot-blot. FIG. 9B. Quantification of extracellular Tau levels; data are mean±SEM, n.s non-significant; *p<0.05. Student's t test, n=6 for Tau5A6 and n=4 for T22.
The impact of Numb on the secretion of monomeric and oligomeric Tau was assessed. A cell line (HEK293T) expressing Tau was transfected with either GFP (Control) or Numb72, and the monomeric Tau (5A6) and oligomeric Tau (T22) levels were assessed in the cell media by dot blot assay on the collected culture medium.

Tau::GFP fusion protein = assay: Intracellular Tau::GFP fluorescence in stable inducible HEK293 cells with proteasome or lysosome inhibitor; conditions: stable inducible HEK293, Numb72 vs control empty vector, fixed 48 h after doxycycline
Experimental: FIG. 7A Stable inducible cell line HEK293 that express a Tau::GFP fusion protein was transfected with Control Myc or Numb72::Myc, and the Tau::GFP expression was activated by adding Doxycycline 6 h later. The cells were fixed 48 h later and stained for Myc. FIG. 7B. The mean intensity (±SEM) of intracellular Tau::GFP fluorescence in transfected cells was quantified. Cells were treated with vehicle, MG132 (a proteasome inhibitor, 25 uM) or Chloroquine (a lysosome inhibitor, 25 uM) for 4 h before fixation and Myc staining. Quantification represents mean intensity +/− SEM, *p≤0.01; Anova 1-way test.
The potential role of the proteasome and of the lysosome on the ability of Numb to reduce Tau levels was assessed. A stable inducible cell line (HEK293) expressing a Tau::GFP fusion protein was transfected with
Numb72 or a control empty vector. The intracellular Tau::GFP levels was compared when the cells were treated with a proteasome inhibitor (MG132), a lysosome inhibitor (Chloroquine) or a control (vehicle). […] (FIGS. 7A-B).

B1: Numb-72: 72 kDa Numb isoform with long PTB domain and long PRR; human isoform 1 (SEQ ID NO: 1); expressed by transfection (protein)
chain: MNKLRQSFRRKKDVYVPEASRPHQWQTDEEGVRTGKCSFPVKYLGHVEVDESRGMHICEDAVKRLKAERKFFKGFFGKTGKKAVKAVLWVSADGLRVVDEKTKDLIVDQTIEKVSFCAPDRNFDRAFSYICRDGTTRRWICHCFMAVKDTGERLSHAVGCAFAACLERKQKREKECGVTATFDASRTTFTREGSFRVTTATEQAEREEIMKQMQDAKKAETDKIVVGSSVAPGNTAPSPSSPTSPTSDATTSLEMNNPHAIPRRHAPIEQLARQGSFRGFPALSQKMSPFKRQLSLRINELPSTMQRKTDFPIKNAVPEVEGEAESISSLCSQITNAFSTPEDPFSSAPMTKPVTVVAPQSPTFQANGTDSAFHVLAKPAHTALAPVAMPVRETNPWAHAPDAANKEIAATCSGTEWGQSSGAASPGLFQAGHRRTPSEADRWLEEVSKSVRAQQPQASAAPLQPVLQPPPPTAISQPASPFQGNAFLTSQPVPVGVVPALQPAFVPAQSYPVANGMPYPAPNVPVVGITPSQMVANVFGTAGHPQAAHPHQSPSLVRQQTFPHYEASSATTSPFFKPPAQHLNGSAAFNGVDDGRLASADRHTEVPTGTCPVDPFEAQWAALENKSKQRTNPSPTNPFSSDLQKTFEIEL
modifications: homo sapiens
notes: 72 kDa Numb isoform with long PTB domain and long PRR; expressed by transfection
levels of Tau::Venus by western blot (Tau [1]): significantly reduced the levels of Tau | secretion of monomeric Tau (5A6) in the cell media (Tau [2]): stimulates the secretion of monomeric Tau | secretion of oligomeric Tau (T22) in the cell media (Tau [2]): not of toxic (oligomeric) Tau | intracellular Tau::GFP levels (Tau::GFP fusion protein): induced a decrease of Tau::GFP levels
